Test [1] has as its target His/S-tagged AKAP7γ (human). As to the kind of experiment: SPR; Biacore T100; AKAP7γ or AKAP7α amine-coupled to a CM5 chip (150 RU) in separate flow chambers; analytes AKAP7γ or AKAP7α 12.5–200 nM in HBS (10 mM Hepes pH 7.4, 150 mM NaCl, 0.005% Surfactant P20), 30 μL/min, 300 s; heterogeneous analyte model. On the technique in general: In SPR one partner is held on a chip, and binding of the other changes the refractive index at the surface.

A further test has as its target AKAP7γ-EGFP (human). In words: photon counting histogram analysis (fluorescence fluctuation); AKAP7γ-EGFP in live HEK-293 cells, cytoplasm; two-component global fit with brightness constrained to monomeric and tandem EGFP; apparent Kd, monomer to dimer; 75 measurements from 5 cells.

Several values for one entry are separate records, joined by “and”; a condition that tells them apart may be missing. Equal values may be shown once.

His/S-tagged AKAP7γ (natural protein): in test [1], the KD, site 1 (heterogeneous analyte model) came to 0.000537 µM and the KD, site 2 (heterogeneous analyte model) is 0.0797 µM.

Turning to AKAP7γ-EGFP (natural protein), in the test with AKAP7γ-EGFP (human), the Kd is 0.0788 to 0.126 µM and 0.0984 µM; the percent of the particles detected that are dimer came out at 20%; the percent of the protein in the dimeric form stood at 28.7%; the stoichiometry N – broadly, a count of units in the complex or per binding partner – was 2.

(Values after article PMC4568377.)
